Target: the molecule itself
Test: SEC

B1: GIRK2 R92F channel (G protein-gated inwardly rectifying potassium channel 2, R92F substitution) (natural protein, mouse, UniProt P48542 1-425, looked up)
chain: MTMAKLTESMTNVLEGDSMDQDVESPVAIHQPKLPKQARDDLPRHISRDRTKRKIQRYVRKDGKCNVHHGNVRETYRYLTDIFTTLVDLKWFFNLLIFVMVYTVTWLFFGMIWWLIAYIRGDMDHIEDPSWTPCVTNLNGFVSAFLFSIETETTIGYGYRVITDKCPEGIILLLIQSVLGSIVNAFMVGCMFVKISQPKKRAETLVFSTHAVISMRDGKLCLMFRVGDLRNSHIVEASIRAKLIKSKQTSEGEFIPLNQSDINVGYYTGDDRLFLVSPLIISHEINQQSPFWEISKAQLPKEELEIVVILEGIVEATGMTCQARSSYITSEILWGYRFTPVLTMEDGFYEVDYNSFHETYETSTPSLSAKELAELANRAEVPLSWSVSSKLNQHAELETEEEEKNPEELTERNGDVANLENESKV
B1 was tested, and the “stoichiometry N” value was 4.
